What was measured:
[1] = molecular target: T1, EtgA residues 18–152 with C-terminal 6xHis-tag (enteropathogenic Escherichia coli); test: differential scanning fluorimetry
T1 chain: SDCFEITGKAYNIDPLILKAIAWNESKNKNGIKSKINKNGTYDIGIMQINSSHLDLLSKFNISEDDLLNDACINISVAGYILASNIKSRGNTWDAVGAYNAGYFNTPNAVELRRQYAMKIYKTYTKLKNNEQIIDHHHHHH

[2] = molecular target: T1, EtgA residues 18–152 with C-terminal …; test: MST

B1: EscI peptide comprising EscI residues 66–87 (peptide)
peptide: TAGVSSPEQVLIEEIKKRHLAT
increase in Tm of EtgA (250 and 500 μM peptide) [1]: 2 °C | Kd [2]: 385 ± 35 µM
